Numbering of substitutions follows the chain as printed. In names and notes the source's numbering stands.

The text below walks through data of patent publication US20210181204A1 (SYNGENTA PARTICIPATIONS, published 2021).

Assay [1] concerns the target T1, Cry1Ab insecticidal protein (Bacillus thuringiensis, UniProt P0A370 1-615). The assay is described as follows: direct ELISA, coated protein, SA-AP, 405 nm. On the technique in general: In an ELISA, binding on a coated surface is turned into a signal by an enzyme label.
Assay [2] concerns the target eCry3.1Ab hybrid insecticidal protein. The assay is described as follows: direct ELISA, coated protein, SA-AP, 405 nm.
The target in assay [3] is T2, mCry3A insecticidal protein (Bacillus thuringiensis subsp. …, UniProt P0A379 48-644, limits assumed).
T2 construct: also called modified Cry3A
T2 sequence: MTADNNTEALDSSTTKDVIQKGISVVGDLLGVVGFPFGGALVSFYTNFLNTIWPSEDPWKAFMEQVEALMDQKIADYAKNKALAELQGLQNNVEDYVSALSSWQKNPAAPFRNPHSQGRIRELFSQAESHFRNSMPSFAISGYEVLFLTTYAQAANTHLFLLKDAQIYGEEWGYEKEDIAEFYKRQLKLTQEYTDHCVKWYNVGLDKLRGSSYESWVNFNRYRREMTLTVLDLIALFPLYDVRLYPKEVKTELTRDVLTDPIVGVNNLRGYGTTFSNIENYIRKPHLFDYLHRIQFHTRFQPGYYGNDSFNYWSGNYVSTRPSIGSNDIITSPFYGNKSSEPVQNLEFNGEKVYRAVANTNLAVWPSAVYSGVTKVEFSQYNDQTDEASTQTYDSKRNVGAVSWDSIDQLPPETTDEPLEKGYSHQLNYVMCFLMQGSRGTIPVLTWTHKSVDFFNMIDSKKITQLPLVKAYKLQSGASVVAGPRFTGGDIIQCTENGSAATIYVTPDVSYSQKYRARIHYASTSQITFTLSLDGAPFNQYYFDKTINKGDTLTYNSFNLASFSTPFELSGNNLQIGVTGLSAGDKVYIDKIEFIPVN
The assay is described as follows: direct ELISA, coated protein, SA-AP, 405 nm.

The target in assay [4] is Cry1Aa insecticidal protein (Bacillus thuringiensis subsp. aizawai, UniProt P0A367 12-1176). In words: direct ELISA, coated protein, SA-AP, 405 nm.
For assay [5], the target named is Cry1Ai insecticidal protein. In words: direct ELISA, coated protein, SA-AP, 405 nm.
Assay [6] addresses Cry1Ab.1Ca insecticidal protein. In words: direct ELISA, coated protein, SA-AP, 405 nm.
The target of assay [7] is T1, Cry1Ab insecticidal protein. The assay is described as follows: direct ELISA: Cry1Ab coated at 1 ug/ml, RGS-His HRP detection.
The target in assay [8] is eCry3.1Ab hybrid insecticidal protein. The assay is described as follows: direct ELISA: eCry3.1Ab coated at 1 ug/ml, RGS-His HRP detection.
Assay [9] addresses T2, mCry3A insecticidal protein. In words: direct ELISA: mCry3A coated at 1 ug/ml, RGS-His HRP detection.

B1: synNAPS-12tag ligand (designed binder)
chain: MRGSHHHHHHGSVKVKFKLTGEEKEVDTSKIQWVARFGKFVDFLYDDNGKTGWGWVYEKDAPKELLDMLARAEREKKLGSGLNDIFEAQKIEWH
modifications: in vivo biotinylation (E. coli BirA strain) on the C-terminal avidin-tag
notes: also called tagged synNAPS 12
Consider B1, for which the binding result in assay [1], in [2], in assay [3], in [4], in assay [5] and in assay [6] was “no binding (tested: 10 nM)” in each case.

B2: synNAPS-14tag ligand (designed binder)
chain: B1 chain with L19Y, T20K, Q32I, W33F, A35Y, D42M, L44I, W53H, W55D, Y57R
modifications: in vivo biotinylation (E. coli BirA strain) on the C-terminal avidin-tag
notes: also called tagged synNAPS 14
Consider B2, for which the binding result in [1], in assay [2], in [3], in assay [4], in assay [5] and in assay [6] was “no binding (tested: 10 nM)” in each case.

B3: synNAPS-1tag ligand (designed binder)
chain: MRGSHHHHHHGSVKVKFGPWGEEKEVDTSKIVDVWRWGKYVDFFYDDNGKVGIGSVTEKDAPKELLDMLARAEREKKLGSGLNDIFEAQKIEWH
modifications: in vivo biotinylation (E. coli BirA strain) on the C-terminal avidin-tag
notes: also called tagged synNAPS 1
B3: the binding result in [1], in [2], in assay [3], in assay [4], in assay [5] and in [6] was “no binding (tested: 10 nM)” throughout.

B4: synNAPS-2 ligand (designed binder)
chain: MVKVKFKYKGEEKEVDTSKIVWIGRFGKSVYFRYDDNGKTGAGRVYEKDAPKELLDMLARAEREKK
For B4, the “Binding (OD 450 nm)” value in assay [7] is 4 OD 450 nm.

B5: synNAPS-10tag ligand (designed binder)
chain: MRGSHHHHHHGSVKVKFLMKGEEKEVDTSKIKWVNRHGKYVAFYYDDNGKTGGGEVREKDAPKELLDMLARAEREKKLGSGLNDIFEAQKIEWH
modifications: in vivo biotinylation (E. coli BirA strain) on the C-terminal avidin-tag
notes: also called tagged synNAPS 10
Consider B5, for which the binding result in [1], in assay [2], in [3], in assay [4], in [5] and in assay [6] was “no binding (tested: 10 nM)” each time.

B6: synNAPS13 variant K7A (designed binder)
chain: RGSHHHHHHGSMVKVKFARWGEEKEVDTSKILHVLRVGKYVRFSYDDNGKLGAGYVTEKDAPKELLDMLARAEREKK
For the molecule B6, the “Binding (OD 450 nm)” value in [8] turned out to be 3 OD 450 nm.

B7: synNAPS13 variant S33A (designed binder)
chain: B6 chain with A18K, S44A
In the case of B7, in [8], the “Binding (OD 450 nm)” value is 4.1 OD 450 nm.

B8: synNAPS13 variant W9A (designed binder)
chain: B6 chain with A18K, W20A
For the molecule B8, in [8], the “Binding (OD 450 nm)” value turned out to be 1 OD 450 nm.

B9: synNAPS13 variant L40A (designed binder)
chain: B6 chain with A18K, L51A
Take B9: the “Binding (OD 450 nm)” value in assay [8] was determined as 0.5 OD 450 nm.

B10: synNAPS13 variant Y29A (designed binder)
chain: B6 chain with A18K, Y40A
In the case of B10, the “Binding (OD 450 nm)” value in [8] came out at 2.6 OD 450 nm.

B11: synNAPS13 variant L24A (designed binder)
chain: B6 chain with A18K, L35A
Consider B11, for which, in assay [8], the “Binding (OD 450 nm)” value is 1.1 OD 450 nm.

B12: synNAPS13 variant R8A (designed binder)
chain: B6 chain with A18K, R19A
For B12, the “Binding (OD 450 nm)” value in [8] worked out at 2.4 OD 450 nm.

B13: synNAPS13 variant V26A (designed binder)
chain: B6 chain with A18K, V37A
Regarding B13, the “Binding (OD 450 nm)” value in assay [8] was found to be 1.8 OD 450 nm.

B14: synNAPS13 variant T46A (designed binder)
chain: B6 chain with A18K, T57A
Consider B14, for which, in assay [8], the “Binding (OD 450 nm)” value was 4.1 OD 450 nm.

B15: synNAPS13 variant L21A (designed binder)
chain: B6 chain with A18K, L32A
For B15, in assay [8], the “Binding (OD 450 nm)” value amounted to 1.8 OD 450 nm.

B16: synNAPS9 variant F31A (designed binder)
chain: RGSHHHHHHGSMVKVKFAQGGEEKEVDTSKIYRVPRHGKIVAFMYDDNGKGGFGHVTEKDAPKELLDMLARAEREKK
Regarding B16, the “Binding (OD 450 nm)” value in assay [9] worked out at 1.4 OD 450 nm.

B17: synNAPS9 variant G9A (designed binder)
chain: B16 chain with G20A, A42F
As to B17, in assay [9], the “Binding (OD 450 nm)” value turned out to be 1.5 OD 450 nm.

B18: synNAPS9 variant Y21A (designed binder)
chain: B16 chain with Y32A, A42F
With B18, the “Binding (OD 450 nm)” value in [9] was 1.8 OD 450 nm.

B19: synNAPS9 variant P24A (designed binder)
chain: B16 chain with P35A, A42F
Consider B19, for which the “Binding (OD 450 nm)” value in assay [9] was determined as 0.5 OD 450 nm.

B20: synNAPS9 variant F42A (designed binder)
chain: B16 chain with A42F, F53A
As to B20, the “Binding (OD 450 nm)” value in [9] was 0.2 OD 450 nm.

B21: synNAPS9 variant H26A (designed binder)
chain: B16 chain with H37A, A42F
Turning to B21, in [9], the “Binding (OD 450 nm)” value worked out at 1.8 OD 450 nm.

B22: synNAPS9 variant R22A (designed binder)
chain: B16 chain with R33A, A42F
Turning to B22, in [9], the “Binding (OD 450 nm)” value was 1 OD 450 nm.

B23: synNAPS9 variant G40A (designed binder)
chain: B16 chain with A42F, G51A
As for B23, the “Binding (OD 450 nm)” value in assay [9] came out at 1.7 OD 450 nm.

B24: synNAPS2 variant K7A (designed binder)
chain: RGSHHHHHHGSMVKVKFAYKGEEKEVDTSKIVWIGRFGKSVYFRYDDNGKTGAGRVYEKDAPKELLDMLARAEREKK
For the molecule B24, in assay [7], the “Binding (OD 450 nm)” value was 4 OD 450 nm.

B25: synNAPS2 variant T40A (designed binder)
chain: B24 chain with A18K, T51A
In the case of B25, the “Binding (OD 450 nm)” value in assay [7] is 4 OD 450 nm.

B26: synNAPS2 variant F26A (designed binder)
chain: B24 chain with A18K, F37A
For the molecule B26, in [7], the “Binding (OD 450 nm)” value stood at 3.7 OD 450 nm.

B27: synNAPS2 variant K9A (designed binder)
chain: B24 chain with A18K, K20A
As for B27, in [7], the “Binding (OD 450 nm)” value amounted to 4 OD 450 nm.

B28: synNAPS2 variant G24A (designed binder)
chain: B24 chain with A18K, G35A
Consider B28, for which the “Binding (OD 450 nm)” value in assay [7] was 4 OD 450 nm.

B29: synNAPS2 variant I23A (designed binder)
chain: B24 chain with A18K, I34A
As for B29, the “Binding (OD 450 nm)” value in [7] worked out at 3.2 OD 450 nm.

B30: synNAPS2 variant R33A (designed binder)
chain: B24 chain with A18K, R44A
On to B30, for which the “Binding (OD 450 nm)” value in assay [7] was determined as 2.2 OD 450 nm.

B31: synNAPS2 variant Y8A (designed binder)
chain: B24 chain with A18K, Y19A
For B31, the “Binding (OD 450 nm)” value in assay [7] was 2.4 OD 450 nm.

B32: synNAPS2 variant V21A (designed binder)
chain: B24 chain with A18K, V32A
Consider B32, for which the “Binding (OD 450 nm)” value in assay [7] was 3.8 OD 450 nm.

B33: synNAPS2 variant Y46A (designed binder)
chain: B24 chain with A18K, Y57A
In the case of B33, the “Binding (OD 450 nm)” value in assay [7] was determined as 3.5 OD 450 nm.

B34: synNAPS-9 ligand (designed binder)
chain: MVKVKFAQGGEEKEVDTSKIYRVPRHGKIVFFMYDDNGKGGFGHVTEKDAPKELLDMLARAEREKK
For the molecule B34, the “Binding (OD 450 nm)” value in assay [9] was 2.5 OD 450 nm.
